For the assay, the target named is human CD3-ε (human) (UniProt P07766).
Chain of UniProt P07766 (P07766 23-207): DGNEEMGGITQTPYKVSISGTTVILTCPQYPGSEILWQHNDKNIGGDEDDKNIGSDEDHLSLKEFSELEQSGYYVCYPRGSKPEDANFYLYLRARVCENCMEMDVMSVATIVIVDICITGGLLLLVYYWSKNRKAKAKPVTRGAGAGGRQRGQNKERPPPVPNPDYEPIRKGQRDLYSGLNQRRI

Turning to G19-4 Fab, the Proliferation (day 3, cpm × 10^-3), Purified T Cells + (2 µg/ml 9.3) came to 58.4 cpm × 10^-3.
Regarding native anti-CD3 Mab G19-4 (antibody), the Proliferation (day 3, cpm × 10^-3), Purified T Cells + (0.5 ng/ml PMA) turned out to be 83.6 cpm × 10^-3.

B1: CD3 sFv (VL-VH, no tag) (scFv)
scFv: VDIQMTQTTSSLSASLGDRVTISCRASQDIRNYLNWYQQKPDGTVKLLIYYTSRLHSGVPSRFSGSGSGTDYSLTIANLQPEDIATYFCQQGNTLPWTFGGGTKLVTKRELGGGGSGGGGSGGGGSIDEVQLQQSGPELVKPGASMTMSCKASGYSFTGYIVNWLKQSHGKNLEWIGLINPWKGLTTYNQKFKGKATLTVDKSSSTAYMELLSLTSEDSAVYYCARSGYYGDSDWYFDVWGAGTTCTVSSFESDQSNSEEAKKEEAKKEEAKKSNSLESL
As to B1, the Proliferation (day 3, cpm × 10^-3), Purified T Cells + (0.5 ng/ml PMA) was 65 cpm × 10^-3.

These data come from patent US7915395B2.
